Source: IntAct's records for PubMed 22232549

B1: Extra-large guanine nucleotide-binding protein 2 (Arabidopsis thaliana (Mouse-ear cress)), C6KIE6 (parent)
chain: MAAVIRKLLPFPSPNPKRDNRESDDDDETSSGYRIEYSFASEYKGPLIANVPRALPVEVDQIPTALPVSFSSLRSGISYPVAPLVMTKDTKRPPDSGIEKKNGFVDSAAGSSVVLIGRDVVSGSSSSSSSKRLDVPEEVKSPADFRLSPSSPLSASAREEDHLDDDRVSDVGPRAVRFVEPFQSSECDESSYVSDGESIAATHRAERKGKRGSCYRCQLGNRFTEKEVCIVCDAKYCFNCVRRAMGAMPEGRKCQACIGYRIDESKRASLGKCSRMLKRHLTDSELRQVMNAEITCKANQLPSRLIIVNDKPLSEDELYTLQTCPNPPKKLKPGHYWYDKVAGYWGKIGEKPSQIISPNNSIGGYISEKVSNGDTEIYINGREITKPELTMLKWAGVQCEGKPHFWVDSDGSYREEGQKHPIGNIWSKKRAKIACAVFSLPVPPASSAVEPYDVPLYEQKMLNKLLLIGSEKGGATTIYKQARSLYNVSFSLEDRERIKFIIQTNLYTYLAMVLEAHERFEKEMSNDQSSGNVGDETSAKPGNSINPRLKHFSDWVLKEKEDGNLKIFPPSSRENAQTVADLWRVPAIQATYKRLRDTLPRNAVYFLERILEISRSEYDPSDMDILQAEGLSSMEGLSCVDFSFPSTSQEESLESDYQHDTDMKYQLIRLNPRSLGENWKLLEMFEDADLVIFCVSLTDYAENIEDGEGNIVNKMLATKQLFENMVTHPSLANKRFLLVLTKFDLLEEKIEEVPLRTCEWFEDFNPLISQNQTSRHNPPMAQRAFHYIGYKFKRLYDSILEPVNMRGRSFKPKLFVCQVSLESDTVDNALRYAREILKWHVEETSMFQEMSTTSIEASSSS
partner: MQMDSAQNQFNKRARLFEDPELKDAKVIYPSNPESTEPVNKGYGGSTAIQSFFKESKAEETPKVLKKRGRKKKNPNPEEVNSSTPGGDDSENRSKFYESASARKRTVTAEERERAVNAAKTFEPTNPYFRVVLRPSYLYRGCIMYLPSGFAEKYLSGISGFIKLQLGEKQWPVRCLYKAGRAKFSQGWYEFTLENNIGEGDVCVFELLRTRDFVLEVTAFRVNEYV

Variants of: B1
Settings: with rem19_arath REM19, Q9XIB5

Variant	effect of a mutation on the interaction
T476N	disrupting interaction
